From patent US20240383953

How the values were obtained:
[1] = test system: HIV TAT cell-penetrating peptide (HIV); assay: FP; conditions: given as Ka in nM; n=1.1±0.1; not all DNA bound at 0.9 uM in EMSA, no FCCS bridging
[2] = test system: T1, WR 1-3wRRK peptide (synthetic construct (human NANOG derived)); assay: FP; conditions: given as Ka in nM; n=2.1±0.5; almost all DNA bound at 60 nM in EMSA
T1 sequence: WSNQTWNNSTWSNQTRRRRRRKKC

[3] = test system: WR 1-4wRK peptide (synthetic construct (human NANOG derived)); assay: FP; conditions: given as Ka in nM; cooperativity n=3.3±1.2
WR 1-4wRK peptide (synthetic construct (human NANOG derived)), sequence (chain, as listed by the source): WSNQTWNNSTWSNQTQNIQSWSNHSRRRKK

[4] = test system: WR 1-4wRK peptide (synthetic construct (human NANOG derived)); assay: EMSA; conditions: 50% free DNA; DNA bridging by FCCS from 1 uM

“GATA6 40 bp DNA (two NANOG cognate sites)” showed a K half [1] of 260 nM, a K half [2] of 180 nM and a K half [3] of 340 nM. The K half [4] was 1000 nM.
